The domain aggregation screens of Martell et al. (2025)

Assay: soluble fraction after stress (log2 fold change); higher = more stays soluble; pooled small domains, quantitative proteomics
Conditions: stress: 75 degC
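Note: 20 min heating vs room temperature control held 20 min.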

| Sequence | soluble fraction (log2) |
| --- | --- |
| HMSVAPISYSQFESYLEQGKVASVAVGQDTIAGRFTAPVDGKSQFVTTIVNPQILDRIDKSGVEITGV | 0.144 |
| HMSVAVKAPLQGTVMKVNVKPGDTVTKGAPVAVIEALKMENDVPAPQDGVVASVDVKSGDSVKTDQVLLTL | 0.563 |
| HMSVDAMDEANERKMAKTFNMIVLGGLLKIRPIVSIESVIKALRKTLPERHHHLIPMNEEAIHIGMDII | 0.0832 |
| HMSVDDEQLLKIIDDIFQQNPQAVTDAKTDSNAIHFLIGQVMKETKGHADHAISKEIIEKKLS | 0.0407 |
| HMSVDEVEALYLKIAEDRLEGKLPDKVSESDLMRRYGLTKAQLGAILQRIVHEGWIERTPGHGWRFLPIL | -0.538 |
| HMSVFMIIVLKQHAPQEFVDMLMSSIKAKGVQIDVSKGARKTILGLVGNTSVIDREQIAGYEYVDKVIRV | -1.94 |
| HMSVFTDIYHQADHETKLMLIHEIKIVGDEKEFRLLKSIIDSTSNDLSKEANDALNAIKIRLALSK | -2.34 |
| HMSVFTPLTRSELETFLAPYELGRLLDFQGIAAGSENTNYFISLEKGEYVLTLVERGPVAEMPFFIELLD | -1.33 |
| HMSVGDLLENLIRETRAQFSAPPESLGVAEKRRFVALLSQKGGFLLKGAVSRAASVLGVSEQTVYRYLKDS | -1.83 |
| HMSVGDLPPEAREIWKLLDGRELSLDLLAEETGRETGALLSTLMMLEMKLLVEHGSDMVYRRIPRR | -2.85 |
| HMSVHSAELKKLKAHLLGIIGRELETQPSTENREEMVRQILHQSYESLRLNLPMQLKEELFNEILAEVL | -0.459 |
| HMSVLEHVSGNVRRLRLQAGLSQEALARAASVSRRMLVGIESGDVNVSLSTLDRIAAALGVLFPDLVQAP | -2.53 |
| HMSVLPAREQVAAILRQAILLRKFKEGQDLTLKDAAELVGSSITPVREAFQILENEGLIELRPNKGAVVL | -0.627 |
| HMSVPEDLYFRELEVEGNKVRISGIASTNNRVSALMRNFDQSEWFRDPSLIKVESKSPGVNEFEIVMTRI | 0.125 |
| HMSVPNVVGRDQVEASSLLESAGFKVSVKQSYSDSVEQGKVISQSPSGSTTVSPGSTVTITVSQ | 0.395 |
| HMSVPRPSAVEVTSLVTGVRDLLPHLGEGYVERVLVEFGFKVDETINALLEGNLPKHLQDLDPSLTKEI | -1.24 |
| HMSVPVDEVLAALTQKLTDLRTQAMAAKDFSAVDALKAALTEAGVEVRMSKTGVELIAGPRVDAKKLGTL | 0.395 |
| HMSVRPMVEILRVVGSPSPVWVTWARNRAAWLYETGIRPQQRLRMADGTEVLIRLVGEFAHILVVGG | 0.092 |
| HMSVSATQMDAFVRQLRARLSSADGLDDAARLVRQDLEPFLGRFSDETERDFAAAIEQVRGSIRPVEI | -0.139 |
| HMSVSEAELAEKYHADDLEALKSGKLHEFQENLIDRNGKKYTVQTMKDILTLSDGTRLLLGIGLD | 0.131 |
| HMSVTDDQLRVFTNKSGTKIKAKIVEVSDDKVKLIRDDNKKFIVPINSLSEEDQDYLRDWVSNEAVEP | -0.118 |
| HMSVTIDAGGKVYLQESEIADDQLVPRLVAISNNGYDKPIYLRADKTVGYGRVAEVMSLLNAAGFTKLVLV | -0.513 |
| HMSVTRELMLVKVKVTPEQRAGVSAIVDIFRANIIDVGKESMIIELTGNKSKLEAFIDLLDGYEILELART | -1.46 |
| HMSVTVPDVKRMQAEDAKALLSRYRLRSEVIDSVYVDNIPRGAVVEQIPRENSSVKENRIVFLTINSN | -0.569 |
| HMSVTYRYSYVYNGNTYSDGWSVRRAIENNENKRFGPEPSDLDHEAQKQARVTFWAEHGVEYKEQEVV | -1.24 |
| HMSVYIGVDQAKSIAAEHAGLSNSAVTFSKAKLENDDGMTVYEVEFFYQGTEYDYKIDASTGSILEYDLDR | -1.64 |

| Sequence | soluble fraction (log2) |
| --- | --- |
| HMSWEDSLLKQAREIIDMYPQKRSAVGPLLHLAQSKDGYISDDSISVISKLVGITEVQLKSVSTFYSMYK | -1.74 |
| HMSWEELLEHLEKAAERGEEVRIAGVTLHDEEDFKRALRWLKEWL | -2.7 |
| HMSYIGEEKAKSIAVSNVKGAGTNNVVKVEFDYDDGRAVYEVKVVYNAMEYEFEIDASNGKILSRDAESIY | -1.45 |
| HMSYKFDSLAIILNKLDGKETVNVSSLSDELEVSARTVHRYIGTLQVAGFPIEYDKTKNSYIFSEGYTL | -0.794 |
| HMSYQFKIKNNAAVEVTVSEKNNLLGSTYGDKATVAAGMEKNVTFYTDKPDVVVDTNGNFTITVHDKEIII | 0.0601 |
| HMSYSYIYNYALKVKMDISSTGGKKPYAYYYYDHSYKLAEEILSLSEETESIELQNKYDELKDFYENP | -1.79 |
| HMSYTWHDMYLLAQEYQKEHGNLIIPRNYKGKNGLNLGYWLYKEKLKYRQGKLAPEKIIALEHIGIVWT | -1.25 |
| HMSYYKEMIRLADSIADKAHEGQTDRNGWPYISHPRRVALGARKLVSEMASSTSPDTSLEELKAEVQIVAL | -0.321 |
| HMTAAPEVRVEGLFKGAAVLKIDGQQVMLKKGRSHSSGVTLVDANAHRAIVEIDGQRHELALHMA | -0.0588 |
| HMTADIRFLNSRKFYIYKVEKGETLFSISQKFNIPQEEIIQFNKDINQQGLKAKTKLWVPAYSWL | -3.46 |
| HMTAGTGIAYSEFRSKVQEGQVKDVAIAPDRITGTLSSGQKFSTVPVNDPGLPKMLDDFNVKYSGQA | 0.139 |
| HMTAIWKTITATLTHDIATGKYAPGDRLPTEAQLAARFGVNRHTVRRAISDMNESGLTYSRRGAGVFVAQ | -2.56 |
| HMTALAVGDRVKMDKSATIYGTMRKFAAWVYATKLYVRGIDGNRVVVSTLKSGAITGAVDKKHLTK | -1.61 |
| HMTAMDTQQKKLIIMYHDIHRLRNVEHFTIQRIADHLLLNFRTVKKFLEMTQEEFDKFSENRW | -2.89 |
| HMTANPSTEEIMARVEAIPLPIKRLPPGQIVQAQTVAATVLRSNPGLDLAKAWKLAYATVTGQE | -0.15 |
| HMTANTQVENIRLELQRYMDEHGISQVTVARGIGKTHPVISQFLNNKYPGDVEEVARAIESWLTKQHEKAA | -0.128 |
| HMTAPELGIRQDGNTLVIFWPSSVTGYVLKSADAVDTPPASWTSVTHTTVGDEHRAEITPTGNSRFFRLV | -0.156 |
| HMTAPQAQDYARVPDVLGLDMRESAQALRLDGFEMNAQGDGLAARQSPIGGSYAPEGTQVLVTFEM | 0.053 |
| HMTAQLAAQERTHALDMFMGGYKFSSKPAENGVRAEFEKKNFTLEDGKFLGGDEFMKSLMENDDYKGAFV | 0.406 |
| HMTASKSTVSTPEKVVYHIVFPKETKYSIAKKYGITIEELEKRNPEIIPSLSVGQKLVIKGTAPK | -0.236 |
| HMTATDRQLQLIAYTAARLMAEQGIADFNAAKRKAIQTLGLPNNAKLPGNADVEAQLRAYQRIF | -0.605 |
| HMTATKDLPFSTFITEVEKGNITSVDIKGNQIEGTFSNGAKFKTYSPNYPNLVERLADKGVAISAGPS | 0.0934 |
| HMTAVPADVETVTGFTALDRAGLDTLLARLGLAMDLEDLSFLQAYFRDTERRDPTLTEIRVVDTYWSDH | -1.1 |
| HMTDAEQHEALLFKQVVDGLPQTLRDTFVLSRHAGMTYAEISAHTGTPIKTVESRMAKALELIAQRMR | -1.27 |
| HMTDDALIGKTAQVTVAIKPGSVGQITARVGDERVERLARASADAEIAAGSLVTIKSIAGDSVIVAPE | 0.317 |
| HMTDDPGLSRAENRELQTLLLDRGHDIGQPDGLIGAKTRAAIRAEQSRLNMPVNGRGGQKLLRALRL | 0.262 |

| Sequence | soluble fraction (log2) |
| --- | --- |
| HMTDFLKTRIDTLGLSTRTLNALSEANVRTIGGIARKKQEDLLEIDGIGEKGIQEIKKMLGEYGITL | -0.303 |
| HMTDFSDLSFKYNSEEKDVLNSINLKINGGEMTSLVGHSGAGKTTILNLIPRFYEKSKGDISIDGQSIY | 0.0241 |
| HMTDGLTVPMQGVVIRYKAKKGDKVAVGDAVAVLEAMKMEQNIFANKSGTIKEIYIKEGTTVTPGDVLMSI | -0.315 |
| HMTDLNDTQIKILELLSADASLSAAKMAGQLGIAGRNVEANIKKLKEKGILIRHGSPKSGYWEIVN | -0.349 |
| HMTDNSTTTIRNLKIEWLLEEIRNAVRTGVSVDAAVERISNNPFVKPPEDLLNEARIIFLQNAGQI | -0.79 |
| HMTDPVLYEERDDIAIITINRPEKKNTLTDAVIQGIADGIDAATKSADVVAVVLRGAGDTLTAGYDLTA | 0.213 |
| HMTDSDTQDIDVGELRVGHFVFLDLSWIRHPFPLSSFKIQSAEQIKTIRSLGLRRIRYSPGRSGP | -1.31 |
| HMTDSSEILEAALKEAEDAAHEVLNGTFSVQLEPQKAYIRRLQHMLIDRMNLSSTSKGKEPYRSLLVYR | -1.41 |
| HMTDTDVLSSRLSALSSGRTSAVRLRDGVLSLVLDVGGLSIEARKAMTTAIESTARATPGVEAVRIAET | -0.479 |
| HMTDTSFPRLGAPEEELLSFLAKWEIDAEDAHYTKFSLYYQSTGKMMRDWKATWRAWKERQSELNAQR | -2.33 |
| HMTDVGLEAAKAAALKHAGLSADQVTGLTAKLDWDDGQRVYEVDFWQGSTEYEYEINADGTVRQYESEAH | ≥ 1.04 |
| HMTDVRFIDIPVTEHHPWNGMKVRDLQLPPGTLLVFLSHPGEKNTVPHGETVLRSGDVLVLGATAYTGQ | -0.753 |
| HMTDVRFISIPIQKEHPWNRKLVSELNLPPGTLLVFLRRTGENIVPNGKTMIQEGDVLVLGASAYR | -1.31 |
| HMTEALEFTVEDLRMAGLVNSSFSRRRRELFSEKLGIGYGNGKSLLKKLNGYGITREEFNGAIQSLSD | -0.817 |
| HMTEIILTARSGRHAVRHRLEGLGYTLTPEELERVHQRFLAVADAKKEVFDEDLHALMADERGT | -0.219 |
| HMTEKMILKWKEALERMNDDFTTKDWLNVVIHEMGKSERTAYGWLSDMKRSGIIKDLGYGSWLKVLE | -1.37 |
| HMTEKPTREAHILDQLARDGGVLVAALSRELGVSEVTIRSDLRDLEAAGLLQRTHGGAQASSFQTVL | -0.0942 |
| HMTELNNTQRAAVLLLALDEDSAAEVFKHLSAREVQEVSQEMAKLGNISHDQMRQVLDDFYDESEQF | -0.127 |
| HMTELPLTPRSKRILEMSALEARRLNHSYIGTEHLLMAIIRDGDGVAAKILESLGVNLPNFYTDTVRSIE | 0.0533 |
| HMTELSLSEQAYQQLRRMIVRLDFAPGDVLREEALQEALGMSRTPIREALQRLAREHFVTVIPRRGMFVS | -3.15 |
| HMTELVIPDYFSKALAKNKKAKQVFEAFAYSHRKEYLQWITEAKTEETRNKRMATAIEWIAEGKGRNWKYA | -3.45 |
| HMTEPIESVTTIAGRRIPYRLVRSLRARRMRMTIKESQVTVTLPRGVPLGEAERFLQQNAAWLFKQLDKP | -2.63 |
| HMTESIHVGSKVTINNNAKRWATGQNIYSGVKGKTYTVIQMNGSRLLLDKVISWINKGDVHLPGS | -1.94 |
| HMTESIKRDEAIRLNNGRIYTLDAAKIGTNEYEVMLFNPRTGEEIDSAKTSTEADAILQFDRLRRMYHR | 0.0129 |
